Laboratory results as given in publication PMC10164551, “Structural basis of tRNAPro acceptor stem recognition by a bacterial trans-editing domain”.

Target: T1, ProXp-ala K50A (Caulobacter crescentus, UniProt Q9ABV9 1-168, K50A)
T1 sequence: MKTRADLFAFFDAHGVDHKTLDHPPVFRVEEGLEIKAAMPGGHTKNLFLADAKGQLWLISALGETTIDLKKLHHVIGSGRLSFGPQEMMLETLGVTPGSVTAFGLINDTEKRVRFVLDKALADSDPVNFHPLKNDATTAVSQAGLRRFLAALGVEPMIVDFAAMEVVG
Assay: AUC; 1 mM MgCl2; 9.6 μM protein reaches about 36% bound; EMSA: 81 nM duplex annealed in 50 mM sodium phosphate pH 7.5, 150 mM NaCl, 0-114 μM protein, 1 h room temp, 16% native gel in TBE; NMR: same phosphate buffer, 1
Conditions: protein: recombinant; tags: N-terminal His6 removed by thrombin; leaves Gly-Ser-His; hairpin; 7 bp stem, 3' ACCA single-stranded

## CGGCGAGUUCGCUCGCCGACCA (structured_RNA) [microhelixPro]
  binding signal: ~8 fold weaker than WT
